Test: yeast display, Sf9 membrane polyspecificity reagent, FACS + sequencing; frameworks hold sequencing errors
Procedure, shortened: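 Synthetic nanobody libraries on Saccharomyces cerevisiae BJ5465 were galactose-induced for 36–48 hours, stained 1 hour at 4 °C with 10% biotinylated, detergent-solubilized Sf9 membrane reagent and enriched on streptavidin microbeads. FACS then separated cells into low and high (top ~1%) gates by anti-HA (expression) and streptavidin (reagent binding) fluorescence. Genes were colony-PCR amplified, MiSeq 2 × 250 sequenced and CDR-length filtered. A clone's polyreactivity label is that of its gate of origin.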

Sequence	polyreactivity (PSR sort gate)
QVQLVESGGGLVQAGGSLRLSCAASGSIFPDYAMGWYRQAPGKERELVAAIDTSTTDTYYADSVKGRFTISRDNAKNTVYLQMNSLKPEDTAVYYCAADAYDDPYGYWGQGTQVTVSS	high polyreactivity
QVQLVESGGGLVQAGGSLRLSCAASGSIFNYYVMGWYRQAPGKERELVAGIRWNGGSTYYADSVKGRFTISRDNAKNTVYLQMNSLKPEDTAVYYCAAQAWWGYYSRGPMDYWGQGTQVTVSS	low polyreactivity
QVQLVESGGGLVQAGGRLRLSCAASGRTFKLYAMGWYRQAPRKERELVAAITESGGSTYYADTVKGRFTISRDNAKNTVYLQMNILKPEDTAVDYCARVLQYQKRNDYEYWGQGTQVTVSS	low polyreactivity
QVQLVESGGVLVQAGGSLRLSCAATVFIFKGNAMGWYRQAPGKEREFVADISARGGSTYYADSVKGRFTISRDNAKNTVYLQMNTLKPEDTAVYYCAATTGLYTRYGYWGQGTQVTVSS	high polyreactivity
QVQLVESGGGLVQAGGSLRLSCAASGSTFESNAMGWYRQAPGKERELVAAISRGRTNYADSVKGRFTISRDNAKNTVYLQMNSLKPEDTAVYYCAADGLSNVRQMDYWGQGTQVTVSS	low polyreactivity
QVQLVESGGGLVQAGGSLRLSSAASGYFNFFYAMGRYRQAPGKERELVASITYRGGSTYYADSVKGRFTLSRDNSKNTVYLQMNRLKPEDTAVYYCNVDGGGPLGPQGFPFDYWGQGTQVTVSS	low polyreactivity
QVQLVESGGGLVQAGGSLRLSCAASGSIFPSYAMGWYRQAPGKERELVAVINSGGSTYYADSVKGRFTISRDNAKNTVYFQMNSLKPEDTAVYYCAAYRRRYPRFDYWGQGTQVTVSS	high polyreactivity
QVQLVESGGGLVQAGGSRRLRCAASGRTFWTYAMGWYRQAPGKEREFVAAISYSGSSTYADSVKGRFTISRDNATNTVYLQMKSLKPEDTAVYFCAAYLYTAVVAYGYVSWGQGTQVTVSS	low polyreactivity
QVQLVESGGGLVQAGGSLRLSCAASGSTFHWYAMGWYRQAPGKERELVAAITSGGSTYYADSVKGRFTISRDNAKNTVYLQMNSLKPEDTAVYYCNADRVDSFFDGPSRGYDYWGQGTQVTVSS	low polyreactivity
QLQLVESGGGLVQAGGSLRLSCAASVFTFYVNAMGWYRQAPGKERELVAAISSSGTRTYYADSVKGRFTISRDNAKNTVYLKMNSMKPEDTAVYYCAARAYQHYKWGQGTQVTVSS	high polyreactivity
QVQLVESGGGLVQAGGSLRLSCAASGRTLSHYAMGWYRQAPGKERELVAAISQSGGSTRYADSVKGRFTISRDNAKNTVYLQMISLKPEDTAVYYCAVRQLYSYPGDRRGYYWGQGTQVTVSS	high polyreactivity
QVQLVESGGGLVQAGGSLRLSCAASGRTFVDYDMGWYRQAPGKERELVADINSGGSTYYADSVKGRFTISRDNAKNTVYLQMNSQKPEDTAVYDCAVRSRGTAPQYYYWGQGTQVTVSS	high polyreactivity
QVQLVESGGGLVQAGGSLRLSCAASGSISVRNVMGWYRQAPGKERELVATIRRTGGSTSYADSVKGRFTISRDNAKNTVYLQLNSLKPEDTAVYDCADVRYTTYRRYEYWGQGTQVTVSS	low polyreactivity
QVQLVESGGGLVQAGGSLRLSCAASGFIFAYNIIGWSRHAPGTERELVADISGTGSTNYADSVKGRFTISRDNAKNTVYLQMNSLKPEDTAVYYCAAAKFDVSFWLYFWGQGTQVTVSS	low polyreactivity
QVQLVESGGGLVQAGGSLRLSCAASGITFYRYAMGWSRQAPGKERELVAAIRRAGSTYYADSVKGRFTISRDIAKNSVYLQMNSLKPEDTAVYYCNARYGIGMNYWGQGTHVTVSS	high polyreactivity
QVQLVESGGGLVQAGGSLRLSCAASGRIFYRYTMGWYRQAPGKERELVAAITRSGSSTRYADSVKGRFTISRDYAKNTVYLQMNSLKPEDTAVYYCATRVTSRTSGFDYWGQGTQVTVSS	high polyreactivity
QVQLVESGEGLVQAGGSLRLSCAASGRTFYANAMGWYRQAPGKERELVASITTSGGTYYADSVKGRFTISRDNAKNTVYLQMNSLKPEDTAVYYCAADVYRSIGYDYWGQGTQVTVSS	low polyreactivity
QVQLVESGGGLVQAGGSLRLSCAASGFTLADNTMGWYRQAPGKEMELVAAITSGASTYYADSVKGRFTISRDNAKNTVYLQMNSLKPEDTAVYYCAALYYWLSGYDYWGQGTQVTVSS	low polyreactivity
QVQLVESGGGLVPAGGSLRLSCAASGFTFRRYDMGWYRHAPGKERELVAAISWSSDGTYYADSVKGRFTISRDNAKNTVYLQINSLKPEDTAVYYCAARWGTKSGRYDYWGQGTQVTVSS	high polyreactivity
QVQLVESGGGLVQAGGSLRLSCAASGSTFTYYAMGWYRQAPGKERELVAAITSRGGITYYADSVKGRFTISRDNAKNTVYLQMHSLKPEDTAVYYCNAYSQRYGYYYWGQGTQVTVSS	high polyreactivity
QVQLVESGGGLVQAGGSLRLTCAASGSTFAFYAMGWYRQAPGKERELVAAITLIGGNTYYADSVKGRFTISRDNAKNTVYLQMYSLKPEDTAVYYFAAGGYYVRYPKSWYNYWGQGTQVTVSS	low polyreactivity
QVQLVESGGGLVQAGGSLRLSCAASGRTFYPYAMGWYRKAPVKERDLVAAISWSGGSTRYADSVKGRFTISRDNAKNTVDLQMNSLKPEDTAVYYCNTQYSWYYPADYDYWGQGTQVTVSS	low polyreactivity

Sequence	polyreactivity (PSR sort gate)
QVQLVESGGGLVQAGGSLRLSCAASGRTFEQNAMGWYRQAPGKERELVASITSVGSTDYADSVKGRFTISRDNAKNTVYLQMNSLKPEDTAVYYCAKTLCSQNYDFDYWGQGTQVTVSS	low polyreactivity
QVQLVESGGGLVQAGGSLRLSCAASGRIFLYYTMGWYRQAPGKERELVADITWRGGYTYYADSVKGRFTISRDNAKNTVYLQMNSLKPQDTAVYYFNAVSVSYKRSDYWGQGTQVTVSS	low polyreactivity
QVQLVESGGGLVQAGGSLRLSCAASGRTFGRYVMGWYRQAPGKERELVAAISKGGTSPYYADSVKGRFTISRDNAKNTVYLQMNSLKPEDTAVYYCAAGSFARYTYVPRYDYWGQGTQVTVSS	high polyreactivity
QVQLVESGGGLVQAGGSLRLSCAASGRTCAAYAMGWYRQAPGKERELVAAISIGGSTNYADSVKGRFTISRDNAKNTVYLQLNSLKPEDTAVYYCAAGTWAVSKYLEWLEFYYWGQGTQVTVSS	high polyreactivity
QVQLVESGGGLLQAGGSLRLSCAASGSIFTAYAMGWYRQAPGKESELVAAIDDSGDSTYYADSVKGRFTISRDNAKHTVYLQMNSLKTEDTAVYYCKAEYRVNKEYDDWGQGTQVTVSS	low polyreactivity
QVQLVESGGGLVQAGGSLRLSCAASGRIFLSYAMGWYRQAPGKERELVAGITWNGGSTYYADSVKGRFTISRDNAKNTVYLQMNSLKPEDTAVFYCAADYFGFSYAGYNYWGQGTQVTVSS	low polyreactivity
QVQLVESGGGLVQAGGSLRLSCAASGFTFYNNAMGWYRQAPGKERELVAVITSNGGRTYYADSVKGRFTISRDNAKNTVYLQMNSLKPEDTAVYYCAKDYKALYLYHYRISGGDVDYWGQGTQVTVSS	low polyreactivity
QLQLVESGGGLVQAGGSLRLSCAASGRTLSRYAMGWYRQAPGNERELVAVISSRGGSTYYADSVKGRFTISRDNAKNTVYLRMNSLKPEDTAVFYCAAVRNRHGYDYWGQGTQVTVSS	high polyreactivity
QVQHVESAGGLVQAGGILRLSCAASGSTFVGNAMGWYRQAPGKEREWVATISNSGGRTDYADSVKGRFTISRDNAKNTVYLQMNSLKPEDTAVYYCAADHPAFGPGYSFDYWGQGTQVTVSS	low polyreactivity
QVQLVESGGGLVQAGGSLRLSCAASGFIFKANAMGWYRQAPGKERELVASITFGGDSTYYADSVKGRFTISRDNAKNTVYLQMNSLKPEDTAVYYCNTRRRSYRTYYYWGQGTQVTVLS	low polyreactivity
QVQLVESGGGLVQAGGSLRLSCAASGRIFYANAMGWYRQAPGKERELVAAISSGGSTYYADSVKGRFTISRDNAKNTVYLQMNSLKPEDTAVYYCAVYTHKKVRPEYDYWGQGTQVTVSS	low polyreactivity
QVQLVESGGGLVQAGGSLRLSCAASGRTFLYYAMGWYRQAPGKERELVARITLDGGSTNYADSVKGRFTISRDNAKNTVYLQMNSLKPEDTAVYYCAAQRGGPFPRVVDLYDYWGQGTQVTVSS	low polyreactivity
QVQLVESGGGLVQAGGSLRLSSAASGRISDFYTMGWYRQAPGKERELVAVIRTSGGRTNYADSVKGRFTISRDNAKNTVYLQMNSLKPEDTAVYYCAARVVRYGYKYYYWGQGTQVTVSS	low polyreactivity
QVQLVESGGGLVQAGGSLRLICAASGFTLRHYAMGWSRQAPGKERELVAAITKSGSSTYYADSVKGRFTISRDNAKNTVYLQMNSLKPEDTAVYYCAKKTSYSYAFRYDYWGQGTQVTVSS	high polyreactivity
QVQLVESGGGLVQARGSLRLSCAASVGILNWYALGWYRLAPVKEWELVAAISWSGGSTYYADSVKGRFTISRDNAKNTVYLHFNSLKPEVTAVYYCAAHSRGRFSRTYGYWGDGTQVTVSS	high polyreactivity
QVQLVESGGGLVQAGGSLRLSCAASGRIFGYNTMGWYRQAPGKERELVARISYDVDSTYYADSVKGRFTISRDNAKNTVYLQMNSLKPEDTAVYYCNARRSNLGSYIEYFGFDYWGQGTQVTVSS	low polyreactivity
QVQLVESGGGLVQAGGSLRLSCAASGSTFKDNAMGWYIQAPGKERELVASITGRGGSTYYADSVKGRFTISRDNAKNTVYLHMNSLKPEDTAVYYCAARAYYGVYKSPYDYWGQGTQVTVSS	high polyreactivity
QDQHVESGGGLVQAGGSLRLSCAATGNIFRYYTMGWYRQAPRKERELVAAISWNGGSTYYADSVKGRFTISRDNAKNTVYLQMNSLKPEDTAVYYCNAVQYYEFDYWGQGTQVTVSS	low polyreactivity
QVQLVESGGGLVQAGGSLRLSCAASGIIFAAYVMGWYRQAPGKERELVAAISKSGGRTYYADSVKGRFTISRDNAKNTVYLQMNSLKPEDTAVYYCATDVRVGHIRDYDYWGQGTQVTVSS	high polyreactivity
QVQLQESGGGLVQAGGCLSCTASGTIFGQGDMGWYRQAPGKERELVATINDGASTYYADSVKGRFTISRDKAKNTVYLQKNSLKPDDTAVYYCAVFKDITTYFGYLGQGTQVTVSS	low polyreactivity
QVHLVESGGGLVQAGGSLRLSCAASGLTFIPNAMGWYRQAPGKERELVAAISGTGGSTYYADSVKGRFTISRDNAKNTVYLQMNRLKPEDTAVYYCAARRRYKSGYWGQGTQVTVSS	high polyreactivity
